Source: the supplement of paper PMC7877785
± gives the uncertainty stated by the source.

Assay: self-splicing fitness, log relative to wild type (ln ratio); higher = more splicing; Tetrahymena group I intron in knt gene, E. coli kanamycin selection, DiMSum; sequences stand for … in CUCUCU…GGAGGGAAAAGUUAUCAGGCAUGCACCUGGUAGCUAGUCUUUAAACCAAUAGAUUGCAUCGGUUUAAAAGGCAAGACCGUCAAAUUGCGGGAAAGGGGUCAACAGCCGUUCAGUACCAAGUCUCAGGGGAAACUUUGAGAUGGCCUUGCAAAGGGUAUGGUAAUAAGCUGACGGACAUGGUCCUAACCACGCAGCCAAGUCCUAAGUCAACAGAUCUUCUGUUGAUAUGGAUGCAGUUCACAGACUAAAUGUCGGUCGGGGAAGAUGUAUUCUUCUCAUAAGAUAUAGUCGGACCUCUCCUUAAUGGGAGCUAGCGGAUGAAGUGAUGCAACACUGGAGCCGCUGGGAACUAAUUUGUAUGCGAAAGUAUAUUGAUUAGUUUUGGAGUACUCGUGGUCG
Method in brief: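 Fitness was computed with DiMSum as the error-weighted combination of replicate fold changes, kanamycin versus none, each normalised to wild type. The library randomised all eight intron nucleotides of the P1ex region, with the intron placed in the knt kanamycin-resistance gene on pET-22b(+) in E. coli BL21(DE3). Six replicate transformations were grown overnight at 37°C or 30°C on LB agar with or without 25 μg/mL kanamycin, plus 100 μg/mL carbenicillin, 50 μM IPTG and 0.2% rhamnose. Pooled colonies were amplicon-sequenced on an Illumina HiSeq 2500.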

Sequence: UUGUAGCAAUAUUACGGCGC
- self-splicing fitness (ln) (37 °C): -2.34 ± 0.2

Sequence: UUGUAGCAAUAUUACGGCGG
- self-splicing fitness (ln) (30 °C): -0.508 ± 0.11
- self-splicing fitness (ln) (37 °C): -0.332 ± 0.14

Sequence: UUGUAGCAAUAUUACGGCGU
- self-splicing fitness (ln) (30 °C): -1.2 ± 0.1
- self-splicing fitness (ln) (37 °C): -0.999 ± 0.12

Sequence: UUGUAGCAAUAUUACGGGGU
- self-splicing fitness (ln) (30 °C): -3.7 ± 0.46
- self-splicing fitness (ln) (37 °C): -2.68 ± 0.27

Sequence: UUGUAGCAAUAUUACGGGUA
- self-splicing fitness (ln) (30 °C): -1.75 ± 0.094
- self-splicing fitness (ln) (37 °C): -0.802 ± 0.099

Sequence: UUGUAGCAAUAUUACGUACU
- self-splicing fitness (ln) (30 °C): -0.641 ± 0.12
- self-splicing fitness (ln) (37 °C): -0.216 ± 0.14

Sequence: UUGUAGCAAUAUUACGUCCG
- self-splicing fitness (ln) (30 °C): -1.24 ± 0.12
- self-splicing fitness (ln) (37 °C): -0.388 ± 0.18

Sequence: UUGUAGCAAUAUUACGUCCU
- self-splicing fitness (ln) (30 °C): -1.48 ± 0.15
- self-splicing fitness (ln) (37 °C): -0.583 ± 0.17

Sequence: UUGUAGCAAUAUUACGUGCG
- self-splicing fitness (ln) (30 °C): -1.77 ± 0.15
- self-splicing fitness (ln) (37 °C): 0.0928 ± 0.14

Sequence: UUGUAGCAAUAUUACGUGGA
- self-splicing fitness (ln) (30 °C): -2.15 ± 0.15
- self-splicing fitness (ln) (37 °C): -0.844 ± 0.12

Sequence: UUGUAGCAAUAUUACGUUAA
- self-splicing fitness (ln) (30 °C): -1.71 ± 0.14
- self-splicing fitness (ln) (37 °C): -2.31 ± 0.21

Sequence: UUUAAGCAAUAUUACGACUU
- self-splicing fitness (ln) (30 °C): -2.03 ± 0.12
- self-splicing fitness (ln) (37 °C): -0.889 ± 0.12

Sequence: UUUAAGCAAUAUUACGCAGC
- self-splicing fitness (ln) (30 °C): -2.88 ± 0.22
- self-splicing fitness (ln) (37 °C): -0.593 ± 0.2

Sequence: UUUAAGCAAUAUUACGCCAA
- self-splicing fitness (ln) (30 °C): -0.939 ± 0.14
- self-splicing fitness (ln) (37 °C): 0.281 ± 0.24

Sequence: UUUAAGCAAUAUUACGCGAU
- self-splicing fitness (ln) (30 °C): -3.34 ± 0.43
- self-splicing fitness (ln) (37 °C): -2.32 ± 0.29

Sequence: UUUAAGCAAUAUUACGGAUU
- self-splicing fitness (ln) (30 °C): -2.78 ± 0.2
- self-splicing fitness (ln) (37 °C): -1.07 ± 0.2

Sequence: UUUAAGCAAUAUUACGGCGG
- self-splicing fitness (ln) (30 °C): -0.0601 ± 0.13
- self-splicing fitness (ln) (37 °C): -0.212 ± 0.18

Sequence: UUUAAGCAAUAUUACGGGAU
- self-splicing fitness (ln) (30 °C): -3.4 ± 0.21
- self-splicing fitness (ln) (37 °C): -1.95 ± 0.2

Sequence: UUUAAGCAAUAUUACGGGGG
- self-splicing fitness (ln) (30 °C): -2.49 ± 0.22
- self-splicing fitness (ln) (37 °C): -2.04 ± 0.18

Sequence: UUUAAGCAAUAUUACGGUCC
- self-splicing fitness (ln) (30 °C): -2.33 ± 0.3
- self-splicing fitness (ln) (37 °C): -1.25 ± 0.25

Sequence: UUUAAGCAAUAUUACGGUGG
- self-splicing fitness (ln) (30 °C): -0.86 ± 0.087
- self-splicing fitness (ln) (37 °C): -0.646 ± 0.12

Sequence: UUUAAGCAAUAUUACGGUUG
- self-splicing fitness (ln) (30 °C): -2.33 ± 0.13
- self-splicing fitness (ln) (37 °C): -1.76 ± 0.14

Sequence: UUUAAGCAAUAUUACGGUUU
- self-splicing fitness (ln) (30 °C): -2.53 ± 0.28
- self-splicing fitness (ln) (37 °C): -1.51 ± 0.22

Sequence: UUUAAGCAAUAUUACGUACC
- self-splicing fitness (ln) (30 °C): -2.05 ± 0.39

Sequence: UUUAAGCAAUAUUACGUCGU
- self-splicing fitness (ln) (30 °C): -2.14 ± 0.21
- self-splicing fitness (ln) (37 °C): -2.07 ± 0.32

Sequence: UUUAAGCAAUAUUACGUCUC
- self-splicing fitness (ln) (30 °C): -1.11 ± 0.29
- self-splicing fitness (ln) (37 °C): -1.83 ± 0.39

Sequence: UUUAAGCAAUAUUACGUUAG
- self-splicing fitness (ln) (30 °C): -1.75 ± 0.13
- self-splicing fitness (ln) (37 °C): -0.995 ± 0.14

Sequence: UUUCAGCAAUAUUACGAACC
- self-splicing fitness (ln) (37 °C): -1.08 ± 0.38

Sequence: UUUCAGCAAUAUUACGAGUG
- self-splicing fitness (ln) (30 °C): -0.489 ± 0.094
- self-splicing fitness (ln) (37 °C): -0.205 ± 0.11

Sequence: UUUCAGCAAUAUUACGAUGG
- self-splicing fitness (ln) (30 °C): -2.15 ± 0.14
- self-splicing fitness (ln) (37 °C): -0.745 ± 0.16

Sequence: UUUCAGCAAUAUUACGCAUU
- self-splicing fitness (ln) (30 °C): -1.93 ± 0.14
- self-splicing fitness (ln) (37 °C): -1.08 ± 0.11

Sequence: UUUCAGCAAUAUUACGCCCU
- self-splicing fitness (ln) (30 °C): -0.619 ± 0.22
- self-splicing fitness (ln) (37 °C): -0.611 ± 0.29

Sequence: UUUCAGCAAUAUUACGCGCG
- self-splicing fitness (ln) (30 °C): -0.107 ± 0.18
- self-splicing fitness (ln) (37 °C): -1.01 ± 0.22

Sequence: UUUCAGCAAUAUUACGCGUA
- self-splicing fitness (ln) (30 °C): -0.663 ± 0.086
- self-splicing fitness (ln) (37 °C): -0.289 ± 0.088

Sequence: UUUCAGCAAUAUUACGCGUG
- self-splicing fitness (ln) (30 °C): -1.02 ± 0.082
- self-splicing fitness (ln) (37 °C): -0.508 ± 0.094

Sequence: UUUCAGCAAUAUUACGCUAU
- self-splicing fitness (ln) (30 °C): -2.73 ± 0.17
- self-splicing fitness (ln) (37 °C): -1.81 ± 0.14

Sequence: UUUCAGCAAUAUUACGCUGC
- self-splicing fitness (ln) (30 °C): -2.48 ± 0.31
- self-splicing fitness (ln) (37 °C): -1.14 ± 0.35

Sequence: UUUCAGCAAUAUUACGCUUG
- self-splicing fitness (ln) (30 °C): -1.3 ± 0.11
- self-splicing fitness (ln) (37 °C): -0.507 ± 0.11
